Assay results published in patent US20070027082A1 (UNIVERSITY OF TENNESSEE RESEARCH FOUNDATION, published 2007).

T1: type I IL-1 receptor on murine EL4 6.1 cells (murine) (UniProt P13504)
T1 sequence (looked up): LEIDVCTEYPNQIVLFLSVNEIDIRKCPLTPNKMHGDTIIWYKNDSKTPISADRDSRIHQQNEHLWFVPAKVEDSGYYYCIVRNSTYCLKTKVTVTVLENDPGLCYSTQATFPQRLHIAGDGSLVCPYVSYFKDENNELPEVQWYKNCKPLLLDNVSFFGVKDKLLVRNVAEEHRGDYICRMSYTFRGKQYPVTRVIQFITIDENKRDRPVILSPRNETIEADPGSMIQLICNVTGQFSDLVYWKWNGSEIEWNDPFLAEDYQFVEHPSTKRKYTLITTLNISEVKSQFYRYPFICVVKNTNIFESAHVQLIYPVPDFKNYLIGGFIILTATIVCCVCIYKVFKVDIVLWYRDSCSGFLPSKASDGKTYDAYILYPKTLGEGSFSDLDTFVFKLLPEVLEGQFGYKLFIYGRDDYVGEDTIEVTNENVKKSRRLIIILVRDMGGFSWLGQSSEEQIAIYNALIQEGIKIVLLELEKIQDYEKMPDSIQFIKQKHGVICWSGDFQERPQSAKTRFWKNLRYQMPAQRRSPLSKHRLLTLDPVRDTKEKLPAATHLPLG

T2: type I IL-1 receptor on murine EL4 6.1 cells (murine, UniProt P13504 20-576)
T2 construct: whole, on cells; Endogenous receptor on the murine T cell line EL4 6.1; also called type I IL-1Rs; IL-1 receptors on murine EL4 6.1 cells
T2 sequence (looked up): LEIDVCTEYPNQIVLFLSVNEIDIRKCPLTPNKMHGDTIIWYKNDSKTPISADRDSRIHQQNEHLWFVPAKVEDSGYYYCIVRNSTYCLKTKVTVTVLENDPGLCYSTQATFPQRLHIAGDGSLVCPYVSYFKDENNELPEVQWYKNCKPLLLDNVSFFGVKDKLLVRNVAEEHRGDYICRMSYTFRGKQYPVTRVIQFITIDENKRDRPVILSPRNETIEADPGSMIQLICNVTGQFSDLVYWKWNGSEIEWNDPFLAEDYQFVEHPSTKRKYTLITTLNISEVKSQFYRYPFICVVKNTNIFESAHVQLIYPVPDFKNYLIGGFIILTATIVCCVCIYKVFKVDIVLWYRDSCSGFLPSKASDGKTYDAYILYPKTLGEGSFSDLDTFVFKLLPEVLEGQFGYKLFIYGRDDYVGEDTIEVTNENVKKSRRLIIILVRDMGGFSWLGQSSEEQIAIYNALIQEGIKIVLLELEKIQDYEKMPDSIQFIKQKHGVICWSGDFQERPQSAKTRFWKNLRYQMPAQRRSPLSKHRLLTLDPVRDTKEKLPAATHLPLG


Tests used:
[1] = target: T1, type I IL-1 receptor on murine EL4 6.1 cells (murine); test: competitive radioligand binding on EL4 6.1 cells, 100x excess of competitor
[2] = target: T2, type I IL-1 receptor on murine EL4 6.1 …; test: competition with [125I] IL-1 beta for type I IL-1R on EL4 6.1 cells
Experimental: IL-1 beta for binding to type I IL-1 receptors on murine cells. EL46.1 cells were incubated at 4° C. in presence of the sodium azide for 2 hr with and without each of the IL-1ra peptides or with soluble human recombinant interleukin Ira (shrIL-1ra) as a control. Cells were then incubated with [¹²⁵I]hrIL-1, transferred to microfuge tubes containing phthalolate oil, centrifuged and free and bound radioactivity determined. Non-specific binding was determined in the presence of 100× excess concentration of cold hrIL-1 beta.

soluble human recombinant interleukin 1ra (shrIL-1ra), sequence (P18510 26-177 limits assumed): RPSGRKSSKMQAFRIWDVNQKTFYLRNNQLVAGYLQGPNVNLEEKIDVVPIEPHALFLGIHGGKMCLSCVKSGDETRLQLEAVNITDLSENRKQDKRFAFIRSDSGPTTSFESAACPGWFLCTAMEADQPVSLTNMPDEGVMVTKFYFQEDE

displacement of [125I] IL-1 beta [1]	binding result [2]	Molecule
> 90%		soluble human recombinant interleukin 1ra (shrIL-1ra) (from UniProt P18510 26-177) (ligand)
	no binding	RPSGRKSSKMQAFRIWDVNQKTFYLRNNQLVAGYL (Synthetic peptide representing part of the processed/mature form of human sIL-1ra; also called IL-1ra 1-35; amino terminal IL-1ra peptide) [IL-1ra peptide 1-35 (SEQ ID NO: 13)]
